{"source": "the Immune Epitope Database (IEDB)", "key": {"HLA-A*02:02": {"biological_target": "HLA-A*02:02", "experiment": "IEDB peptide-MHC binding, purified MHC/competitive/radioactivity; filed as Kd, often an IC50 or EC50 that approximates it; ≥ and ≤ were set here for values at or beyond the usual limits of such assays"}, "HLA-A*02:03": {"biological_target": "HLA-A*02:03", "experiment": "IEDB peptide-MHC binding, purified MHC/competitive/radioactivity; filed as Kd, often an IC50 or EC50 that approximates it; ≥ and ≤ were set here for values at or beyond the usual limits of such assays"}, "HLA-A*68:02": {"biological_target": "HLA-A*68:02", "experiment": "IEDB peptide-MHC binding, purified MHC/competitive/radioactivity; filed as Kd, often an IC50 or EC50 that approximates it; ≥ and ≤ were set here for values at or beyond the usual limits of such assays"}, "HLA-A*32:01": {"biological_target": "HLA-A*32:01", "experiment": "IEDB peptide-MHC binding, purified MHC/competitive/radioactivity; filed as Kd, often an IC50 or EC50 that approximates it; ≥ and ≤ were set here for values at or beyond the usual limits of such assays"}, "HLA-B*35:01": {"biological_target": "HLA-B*35:01", "experiment": "IEDB peptide-MHC binding, purified MHC/competitive/radioactivity; filed as Kd, often an IC50 or EC50 that approximates it; ≥ and ≤ were set here for values at or beyond the usual limits of such assays"}, "HLA-B*51:01 [1]": {"biological_target": "HLA-B*51:01", "experiment": "IEDB peptide-MHC binding, purified MHC/competitive/radioactivity; filed as Kd, often an IC50 or EC50 that approximates it; ≥ and ≤ were set here for values at or beyond the usual limits of such assays", "conditions": "source organism: Dengue virus 4 Philippines/H241/1956"}, "HLA-B*51:01 [2]": {"biological_target": "HLA-B*51:01", "experiment": "IEDB peptide-MHC binding, purified MHC/competitive/fluorescence; filed as Kd, often an IC50 or EC50 that approximates it; ≥ and ≤ were set here for values at or beyond the usual limits of such assays", "conditions": "source organism: Listeria monocytogenes 10403S"}, "HLA-A*02:06": {"biological_target": "HLA-A*02:06", "experiment": "IEDB peptide-MHC binding, purified MHC/competitive/radioactivity; filed as Kd, often an IC50 or EC50 that approximates it; ≥ and ≤ were set here for values at or beyond the usual limits of such assays"}, "HLA-A*30:01": {"biological_target": "HLA-A*30:01", "experiment": "IEDB peptide-MHC binding, purified MHC/competitive/radioactivity; filed as Kd, often an IC50 or EC50 that approximates it; ≥ and ≤ were set here for values at or beyond the usual limits of such assays", "conditions": "source organism: Vaccinia virus WR"}, "HLA-B*08:01": {"biological_target": "HLA-B*08:01", "experiment": "IEDB peptide-MHC binding, purified MHC/competitive/radioactivity; filed as Kd, often an IC50 or EC50 that approximates it; ≥ and ≤ were set here for values at or beyond the usual limits of such assays"}, "HLA-B*53:01": {"biological_target": "HLA-B*53:01", "experiment": "IEDB peptide-MHC binding, purified MHC/competitive/radioactivity; filed as Kd, often an IC50 or EC50 that approximates it; ≥ and ≤ were set here for values at or beyond the usual limits of such assays", "conditions": "source organism: Dengue virus 3 Singapore/8120/1995"}, "HLA-B*15:01": {"biological_target": "HLA-B*15:01", "experiment": "IEDB peptide-MHC binding, purified MHC/competitive/radioactivity; filed as Kd, often an IC50 or EC50 that approximates it; ≥ and ≤ were set here for values at or beyond the usual limits of such assays", "conditions": "source organism: Vaccinia virus WR"}, "HLA-B*18:01": {"biological_target": "HLA-B*18:01", "experiment": "IEDB peptide-MHC binding, purified MHC/direct/fluorescence; filed as Kd, often an IC50 or EC50 that approximates it; ≥ and ≤ were set here for values at or beyond the usual limits of such assays", "conditions": "source organism: West Nile virus"}, "HLA-A*02:01": {"biological_target": "HLA-A*02:01", "experiment": "IEDB peptide-MHC binding, purified MHC/competitive/fluorescence; filed as Kd, often an IC50 or EC50 that approximates it; ≥ and ≤ were set here for values at or beyond the usual limits of such assays", "conditions": "source organism: Variola virus"}, "[3]": {"conditions": "source organism: Vaccinia virus WR"}, "[4]": {"conditions": "source organism: Dengue virus 2 Jamaica/1409/1983"}, "[5]": {"conditions": "source organism: Lassa virus GA391"}}, "data": [{"sequence": "LLSGAGEHL", "values": [{"measurement": "Kd", "setting": "HLA-A*02:02; source organism: Homo sapiens", "value": 5.73, "unit": "nM"}, {"measurement": "Kd", "setting": "HLA-A*02:03; source organism: Homo sapiens", "value": 19.2, "unit": "nM"}, {"measurement": "Kd", "setting": "HLA-A*68:02; source organism: Homo sapiens", "value": "≥ 47200", "unit": "nM"}]}, {"sequence": "LLVWHTWQKQ", "values": [{"measurement": "Kd", "setting": "HLA-A*32:01; source organism: Dengue virus 3 Martinique/1243/1999", "value": "≥ 23300", "unit": "nM"}]}, {"sequence": "LPVYLMTLMK", "values": [{"measurement": "Kd", "setting": "HLA-B*35:01; source organism: Dengue virus 4 Philippines/H241/1956", "value": 330, "unit": "nM"}, {"measurement": "Kd", "setting": "HLA-B*51:01 [1]", "value": 7150, "unit": "nM"}]}, {"sequence": "LSYEPDNIV", "values": [{"measurement": "Kd", "setting": "HLA-B*51:01 [2]", "value": "≥ 20000", "unit": "nM"}]}, {"sequence": "LTLDIFYLF", "values": [{"measurement": "Kd", "setting": "HLA-A*32:01; [3]", "value": 4.4, "unit": "nM"}]}, {"sequence": "LVKESMASL", "values": [{"measurement": "Kd", "setting": "HLA-A*02:02; [3]", "value": 1120, "unit": "nM"}, {"measurement": "Kd", "setting": "HLA-A*02:03; [3]", "value": 9.46, "unit": "nM"}, {"measurement": "Kd", "setting": "HLA-A*02:06; [3]", "value": 136, "unit": "nM"}, {"measurement": "Kd", "setting": "HLA-A*30:01", "value": 94.8, "unit": "nM"}]}, {"sequence": "MAMVLSIVSL", "values": [{"measurement": "Kd", "setting": "HLA-B*08:01; source organism: Dengue virus 1 Singapore/S275/1990", "value": 830, "unit": "nM"}]}, {"sequence": "MILFLKLLI", "values": [{"measurement": "Kd", "setting": "HLA-A*32:01; [3]", "value": 715, "unit": "nM"}]}, {"sequence": "MPGIFQTTTG", "values": [{"measurement": "Kd", "setting": "HLA-B*35:01; source organism: Dengue virus 3 Singapore/8120/1995", "value": 1180, "unit": "nM"}, {"measurement": "Kd", "setting": "HLA-B*53:01", "value": 546, "unit": "nM"}]}, {"sequence": "MRFKKESSL", "values": [{"measurement": "Kd", "setting": "HLA-B*08:01; [3]", "value": 3.4, "unit": "nM"}]}, {"sequence": "MRGAKRMAI", "values": [{"measurement": "Kd", "setting": "HLA-B*08:01; [4]", "value": 2.44, "unit": "nM"}]}, {"sequence": "MSIMPVLAY", "values": [{"measurement": "Kd", "setting": "HLA-A*32:01; [3]", "value": 99.7, "unit": "nM"}, {"measurement": "Kd", "setting": "HLA-B*15:01", "value": 1.37, "unit": "nM"}]}, {"sequence": "MSKIKHKIF", "values": [{"measurement": "Kd", "setting": "HLA-B*08:01; [3]", "value": 0.842, "unit": "nM"}]}, {"sequence": "MSRKFMQVY", "values": [{"measurement": "Kd", "setting": "HLA-A*30:01", "value": 1.46, "unit": "nM"}]}, {"sequence": "NEAKVLELL", "values": [{"measurement": "Kd", "setting": "HLA-B*18:01", "value": 38, "unit": "nM"}]}, {"sequence": "NISGYNFSL", "values": [{"measurement": "Kd", "setting": "HLA-A*02:02; [5]", "value": 72.4, "unit": "nM"}, {"measurement": "Kd", "setting": "HLA-A*02:03; [5]", "value": 2080, "unit": "nM"}, {"measurement": "Kd", "setting": "HLA-A*02:06; [5]", "value": 148, "unit": "nM"}, {"measurement": "Kd", "setting": "HLA-A*68:02; [5]", "value": 176, "unit": "nM"}]}, {"sequence": "NMHLKRSVF", "values": [{"measurement": "Kd", "setting": "HLA-B*08:01; [3]", "value": 149, "unit": "nM"}]}, {"sequence": "NSKSRICVI", "values": [{"measurement": "Kd", "setting": "HLA-B*08:01; [3]", "value": 11.1, "unit": "nM"}, {"measurement": "Kd", "setting": "HLA-B*15:01", "value": 1400, "unit": "nM"}]}, {"sequence": "QLNMEKREV", "values": [{"measurement": "Kd", "setting": "HLA-A*02:01", "value": 142, "unit": "nM"}]}, {"sequence": "QVLMMRTTW", "values": [{"measurement": "Kd", "setting": "HLA-A*32:01; [4]", "value": 73.5, "unit": "nM"}]}]}
